PMC5460766
Blank lines part the entries; values can stand above or below the substance they belong to.

Assays:
Experiment in all cases: ITC
[1] = target: NDD(MlnD)+MlnKR4 (Bacillus amyloliquefaciens FZB42) (UniProt A7Z473)
[2] = target: NDD(MlnE)+MlnKR6 (Bacillus amyloliquefaciens FZB42) (UniProt A7Z474)
[3] = target: NDD(MlnG)+MlnKR9 (Bacillus amyloliquefaciens FZB42) (UniProt A7Z476)

Kd [1]: 1800 nM
Substance: MlnDH4+CDD(MlnC) (from UniProt A7Z472 1-1590) (domain or fragment)

Kd [2]: 800 nM
Substance: MlnKS6+CDD(MlnD) (from UniProt A7Z473 1-2902) (domain or fragment)

Kd [3]: 9000 nM
Substance: MlnDH9+CDD(MlnF) (from UniProt A7Z475 1-1903) (domain or fragment)
